Test results published in patent publication US20230037552A1 (published 2023).

Assays:
[1] = biological target: T1, MAGEA1 peptide on HLA-A*02:01 (human); assay: multimer staining
T1 peptide: KVLEYVIKV

[2] = biological target: T2, MAGEA1 peptide on HLA-A*02:16 (human); assay: cytokine release
T2 peptide: KVLEYVIKV

[3] = biological target: T3, MAGEA1 KVL peptide, threonine substitution at position 5 (Y) peptide on HLA-A*02:01 (human); assay: cytokine release
T3 peptide: KVLETVIKV

[4] = biological target: T4, MAGEA1 KVL peptide, threonine substitution at position 3 (L) peptide on HLA-A*02:01 (human); assay: cytokine release
T4 peptide: KVTEYVIKV

[5] = biological target: T5, MAGEA1 peptide on HLA-A*02:04 (human); assay: cytokine release
T5 peptide: KVLEYVIKV

[6] = biological target: T6, MAGEA1 peptide on HLA-A*02:17 (human); assay: cytokine release
T6 peptide: KVLEYVIKV

[7] = biological target: T7, ASTN1 peptide on HLA-A*02:01 (human); assay: cytokine release
T7 peptide: KLYGLDWAEL

[8] = biological target: T8, MAGEA1 KVL peptide, threonine substitution at position 1 (K) peptide on HLA-A*02:01 (human); assay: cytokine release
T8 peptide: TVLEYVIKV

B1: TCR T15.8-4.3-83 (TCR, V domains shown)
Valpha: AQKVTQAQTEISVVEKEDVTLDCVYETRDTTYYLFWYKQPPSGELVFLIRRNSFDEQNEISGRYSWNFQKSTSSFNFTITASQVVDSAVYFCALSEVASGGSYIPTFGRGTSLIVHP
Vbeta: SQTIHQWPATLVQPVGSPLSLECTVEGTSNPNLYWYRQAAGRGLQLLFYSVGIGQISSEVPQNLSASRPQDRQFILSSKKLLLSDSGFYLCAWSGSGGNQPQHFGDGTRLSIL
- binding result [1]: recognises
- binding result [2]: recognises
- binding result [3]: no recognition
- binding result [4]: no recognition
- binding result [5]: recognises
- binding result [6]: recognises
- binding result [7]: no recognition
- binding result [8]: no recognition
